Measurements as given in article PMC10715591, “EspB and HtpG interact with the type III-A CRISPR/Cas system of Mycobacterium tuberculosis” (Frontiers in Molecular Biosciences, 2023).

Biological target: T1, ESX-1 secretion-associated protein EspB (Mycobacterium tuberculosis H37Rv, UniProt P9WJD9 1-460)
T1 construct: also called Esx-1 secreted protein B
Experiment: SPR; Biacore 8K, 25°C; EspB covalently immobilised on a CM5 chip; analytes injected at 25-3,200 nM, 30 uL/min for 2 min; global fit to a 1:1 mass transport model
Details: both partners purified

T1 sequence (P9WJD9 whole entry): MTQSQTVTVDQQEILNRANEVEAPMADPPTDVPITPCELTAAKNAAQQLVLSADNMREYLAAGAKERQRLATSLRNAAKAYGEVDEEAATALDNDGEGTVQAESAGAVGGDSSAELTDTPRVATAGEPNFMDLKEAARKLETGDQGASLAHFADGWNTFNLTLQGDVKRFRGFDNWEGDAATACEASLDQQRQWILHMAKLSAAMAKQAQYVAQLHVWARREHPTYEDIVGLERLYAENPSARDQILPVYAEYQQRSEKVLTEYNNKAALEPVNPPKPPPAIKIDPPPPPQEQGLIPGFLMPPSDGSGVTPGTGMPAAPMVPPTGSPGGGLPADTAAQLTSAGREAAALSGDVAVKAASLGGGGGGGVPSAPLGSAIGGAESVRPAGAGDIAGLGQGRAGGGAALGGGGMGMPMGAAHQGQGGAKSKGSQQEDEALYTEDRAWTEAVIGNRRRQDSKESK

B1: MtbCsm2 (natural protein)
chain: MSVIQDDYVKQAEVIRGLPKKKNGFELTTTQLRVLLSLTAQLFDEAQQSANPTLPRQLKEKVQYLRVRFVYQSGREDAVKTFVRNAKLLEALEGIGDSRDGLLRFCRYMEALAAYKKYLDPKDK
Kd: 0.125 nM | koff: 8.3e-07 s⁻¹ | kon: 6660 M⁻¹ s⁻¹

B2: MtbCsm3 (natural protein)
chain: MTTSYAKIEITGTLTVLTGLQIGAGDGFSAIGAVDKPVVRDPLSRLPMIPGTSLKGKVRTLLSRQYGADTETFYRKPNEDHAHIRRLFGDTEEYMTGRLVFRDTKLTNKDDLEARGAKTLTEVKFENAINRVTAKANLRQMERVIPGSEFAFSLVYEVSFGTPGEEQKASLPSSDEIIEDFNAIARGLKLLELDYLGGSGTRGYGQVKFSNLKARAAVGALDGSLLEKLNHELAAV
Kd: 1.9 nM | koff: 0.000462 s⁻¹ | kon: 243000 M⁻¹ s⁻¹

B3: MtbCsm6 (natural protein)
chain: MILFSPIGTADPITALGDGPMLHIVRHYRPIVVVLFLSAEIAAFENADRRYSAAITRLAPETDVRIVTYTNPSVHRFDLFVPVFRNHLVELSAEFPDRTILLNTSSGTPAMQAALVAINVFGIPRTTAVQVSTPARALSKPGDRESPDAYDLELMWDANDDNQPGAPNRCFEATSAALGALLERANLKQLIVSYDYSAAVTIAADSRLPDQVSNLIRGAMHRSRLEHLVAPKFFKDTAFTYDPANKVAEYISALALLAKREQWAEFARSATPAITIVLRAAVAKHLPEDRYLDDMGRVDRRKLEREPEIRCALKHPPKSPNAEWYLYTKDWLALLRQFAPDRVGALEVLGRFESRVRNTAAHEIVSISEDRITKDGGLLPEQLLKILARETGADLTLYDRLNDEIIRQIDMAPLG
Kd: 0.0316 nM | koff: 5.83e-07 s⁻¹ | kon: 18400 M⁻¹ s⁻¹
